Among the data in patent US20130123350, “NUCLEIC ACID MOLECULE CAPABLE OF BINDING TO c-MET AND USE THEREOF” (KANAGAWA PREFECTURAL HOSPITAL ORGANIZATION, published 2013) are binding result and Kd values, retold here.

Data set [1] deals with T1, rec-cMet (Recombinant Human HGF R/c-MET/Fc Chimera) (Homo sapiens, UniProt P08581;P08581 SEQ:1-283,SEQ:1-625). As to the kind of experiment: ELONA; 3' polyA20/biotin-polyT; also SPR FIG. 11. The note with it: tags: C-terminal HIEGRMD linker, human IgG Fc (100-330), 6xHis; R&D Systems; chain copies: 2 (inferred, Fc chimera). How it is done:
(§1) An anti-IgG antibody (trade name: “Human IgG-Fc Antibody”, Bethyl Laboratories) was adsorbed on a 96-well plate (Iwaki, AGC Techno Glass Co., Ltd., Japan), and then was subjected to blocking using 1% bovine serum albumin. Subsequently, 50 μL of the 1 μg/mL rec-cMet was added to the plate. Further, Tris (20 mmol/L), sodium chloride (100 mmol/L), magnesium acetate (0.1 mmol/L) and Triton (registered trademark)-X100 (0.2%) were added to the plate so that their final concentrations would be as shown in the parentheses. The plate was incubated at room temperature for 3 hours, thus causing the rec-cMet to bind to the plate. After the incubation, the plate was washed three times with a washing solution. The composition of the washing solution was as follows: 20 mmol/L Tris, 100 mmol/L sodium chloride, 0.1 mmol/L magnesium acetate, and 0.2% Triton (registered trademark)-X100. As a control, incubation and washing were carried out in the same manner, except that 50 μL of the washing solution was added instead of 50 μL of the rec-cMet.
(§2) Next, a 20-mer polyadenine (poly A) was added to the 3′ end of each of the RNA aptamers. Thus, poly-A-added RNA aptamers were prepared. Each of the poly-A-added RNA aptamers was denatured, and thereafter, the denatured poly-A-added RNA aptamer was mixed with a 20-mer biotinylated polythymine with its 5′ end being biotinylated (740 nmol/L), tRNA (100 μg/mL), and an RNase inhibitor (0.16 units/mL). As a result, complementary binding occurred between the poly A in the poly-A-added RNA aptamer and the polythymine (poly T) in the biotinylated polythymine, whereby a biotin-labeled RNA aptamer was produced. The biotin-labeled RNA aptamer was added to the plate, and the plate was incubated at 4° C. for 30 minutes. Subsequently, the plate was washed, and 0.1 μg/mL HRP-streptavidin (Thermo Fisher Scientific Inc., USA) was added thereto. The plate was then washed, after which a 1-Step Ultra TMB substrate (Thermo Fisher Scientific Inc., USA) was added to the plate to cause color development, and the absorbance at 450 nm was measured.

The target of data set [2] is rec-NGFR (Recombinant Human NGF R/TNFRSF16/Fc Chimera) (Homo sapiens, UniProt P08138 SEQ:1-222). As to the kind of experiment: ELONA; signal below 40N. The note with it: tags: C-terminal DIEGRMD linker, human IgG Fc (100-330), 6xHis; R&D Systems; chain copies: 2 (inferred, Fc chimera). How it is done: as §2
Sequence of rec-NGFR (Recombinant Human NGF R/TNFRSF16/Fc Chimera) (P08138 29-250, change not shown): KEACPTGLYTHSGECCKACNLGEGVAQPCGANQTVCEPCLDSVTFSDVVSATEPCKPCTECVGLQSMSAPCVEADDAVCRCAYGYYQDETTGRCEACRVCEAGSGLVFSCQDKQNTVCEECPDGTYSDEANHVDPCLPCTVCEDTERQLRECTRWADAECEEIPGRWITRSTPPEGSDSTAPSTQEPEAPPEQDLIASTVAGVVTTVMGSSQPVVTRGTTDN
The binding ability of each of the RNA aptamers to the rec-NGFR was examined in the same manner as in Example 1, except that the rec-NGFR was bound to the plate. Also, as a comparative example, the 40N was used, and the binding ability thereof was examined in the same manner.

Data set [3] concerns the target T1, rec-cMet (Recombinant Human HGF …). As to the kind of experiment: SPR; rec-cMet 175 nM. The note with it: tags: C-terminal HIEGRMD linker, human IgG Fc (100-330), 6xHis; R&D Systems; chain copies: 2 (inferred, Fc chimera). How it is done:
(§3) Using these truncated RNA aptamers, the binding ability thereof to the rec-cMet was examined. The binding ability was analyzed using BIACORE (registered trademark) X (GE Healthcare) in accordance with its instructions for use, with the concentration of the rec-cMet being set to 175 nmol/L. Also, the binding ability of each of the RNA aptamers g1 and g1-trA was examined in the same manner. As a comparative example, the 40N was used, and the binding ability thereof was examined in the same manner.
(In general: SPR reads the build-up and loss of mass on a sensor chip optically.)

For data set [4] the target is unchanged. As to the kind of experiment: ELONA; signal higher than g1. The note with it: tags: C-terminal HIEGRMD linker, human IgG Fc (100-330), 6xHis; R&D Systems; chain copies: 2 (inferred, Fc chimera). How it is done:
as §1, §2
The binding ability of each of the RNA aptamers to the rec-cMet was examined in the same manner as in Example 1, except that the truncated RNA aptamers were used. Also, the binding ability of the RNA aptamer g1 was examined in the same manner.

The target is the same in data set [5]. As to the kind of experiment: SPR; excellent binding; rec-cMet 60 nM. The note with it: tags: C-terminal HIEGRMD linker, human IgG Fc (100-330), 6xHis; R&D Systems; chain copies: 2 (inferred, Fc chimera). From the text:
The binding ability of each of the RNA aptamers to the rec-cMet was examined in the same manner as in Example 5, except that the fluorinated RNA aptamers were used. The concentration of the rec-cMet was set to 60 nmol/L. With the time point at which the introduction of the rec-cMet to the chip was started being 0 seconds, introduction of a buffer was started 60 seconds later. As a comparative example, the same negative control as in Example 6 was used.
FIG. 12 is a graph showing the binding ability of each of the RNA aptamers to the rec-cMet. In FIG. 12, the vertical axis indicates the signal intensity (RU) measured with BIACORE (registered trademark) X. The signal intensity shown in the graph is a value measured at the 60th second when the buffer was introduced. […] By fluorination, these RNA aptamers had acquired RNase resistance and they also maintained the bonding force to the c-Met. Thus, it can be seen that these fluorinated RNA aptamers are particularly suitable for use in vivo and in vitro. All the RNA aptamers maintained equivalent signal values subsequent to the 60th second. Thus, it was confirmed that no decrease in binding ability occurred.

Data set [6] shares this target. As to the kind of experiment: ELONA; high binding; 3' polyA20 hybridised to biotin-polyT; 20 mM Tris, 100 mM NaCl, 0.1 mM Mg acetate, 4 C; also SPR FIG. 11. The note with it: tags: C-terminal HIEGRMD linker, human IgG Fc (100-330), 6xHis; R&D Systems; chain copies: 2 (inferred, Fc chimera). How it is done:
as §1
(§4) Next, a 20-mer polyadenine (poly A) was added to the 3′ end of each of the RNA aptamers. Thus, poly-A-added RNA aptamers were prepared. […] The plate was then washed, after which a 1-Step Ultra TMB substrate (Thermo Fisher Scientific Inc., USA) was added to the plate to cause color development, and the absorbance at 450 nm was measured.

Data set [7] has the same target. As to the kind of experiment: SPR; rec-cMet 175 nM; also ELISA signal above g1 (FIG. 7). The note with it: tags: C-terminal HIEGRMD linker, human IgG Fc (100-330), 6xHis; R&D Systems; chain copies: 2 (inferred, Fc chimera). How it is done: as §3
Data set [8] has the same target. As to the kind of experiment: ELONA; Table 2 misnumbers as SEQ 48; also SPR FIG. 11. The note with it: tags: C-terminal HIEGRMD linker, human IgG Fc (100-330), 6xHis; R&D Systems; chain copies: 2 (inferred, Fc chimera). How it is done: as §1, §4
Data set [9] has the same target. As to the kind of experiment: ELONA; high binding; Table 2 misnumbers as SEQ 47; also SPR FIG. 11. The note with it: tags: C-terminal HIEGRMD linker, human IgG Fc (100-330), 6xHis; R&D Systems; chain copies: 2 (inferred, Fc chimera). How it is done:
as §1, §4

Data set [10] has the same target. As to the kind of experiment: SPR; rec-cMet 100 nM. The note with it: tags: C-terminal HIEGRMD linker, human IgG Fc (100-330), 6xHis; R&D Systems; chain copies: 2 (inferred, Fc chimera). How it is done:
as §3
The binding ability of each of the RNA aptamers to the rec-cMet was examined in the same manner as in Example 5, except that the above RNA aptamers were used. The concentration of the rec-cMet was set to 100 nmol/L. With the time point at which the introduction of the rec-cMet to the chip was started being 0 seconds, introduction of a buffer was started 60 seconds later.

Data set [11] has the same target. As to the kind of experiment: ELONA; highest binding; Table 2 misnumbers as SEQ 46; also SPR FIG. 11. The note with it: tags: C-terminal HIEGRMD linker, human IgG Fc (100-330), 6xHis; R&D Systems; chain copies: 2 (inferred, Fc chimera). How it is done: as §1, §4

T1 sequence (P08581 25-307, change not shown, chain 1 of 2): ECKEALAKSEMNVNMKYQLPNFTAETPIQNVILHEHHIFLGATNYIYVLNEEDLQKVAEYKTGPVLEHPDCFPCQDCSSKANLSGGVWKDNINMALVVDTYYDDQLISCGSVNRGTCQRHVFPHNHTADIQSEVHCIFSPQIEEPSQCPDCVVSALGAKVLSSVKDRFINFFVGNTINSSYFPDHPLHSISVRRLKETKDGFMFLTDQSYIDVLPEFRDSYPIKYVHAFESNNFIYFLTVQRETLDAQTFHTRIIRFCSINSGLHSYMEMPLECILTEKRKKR
T1 sequence (P08581 308-932, change not shown, chain 2 of 2): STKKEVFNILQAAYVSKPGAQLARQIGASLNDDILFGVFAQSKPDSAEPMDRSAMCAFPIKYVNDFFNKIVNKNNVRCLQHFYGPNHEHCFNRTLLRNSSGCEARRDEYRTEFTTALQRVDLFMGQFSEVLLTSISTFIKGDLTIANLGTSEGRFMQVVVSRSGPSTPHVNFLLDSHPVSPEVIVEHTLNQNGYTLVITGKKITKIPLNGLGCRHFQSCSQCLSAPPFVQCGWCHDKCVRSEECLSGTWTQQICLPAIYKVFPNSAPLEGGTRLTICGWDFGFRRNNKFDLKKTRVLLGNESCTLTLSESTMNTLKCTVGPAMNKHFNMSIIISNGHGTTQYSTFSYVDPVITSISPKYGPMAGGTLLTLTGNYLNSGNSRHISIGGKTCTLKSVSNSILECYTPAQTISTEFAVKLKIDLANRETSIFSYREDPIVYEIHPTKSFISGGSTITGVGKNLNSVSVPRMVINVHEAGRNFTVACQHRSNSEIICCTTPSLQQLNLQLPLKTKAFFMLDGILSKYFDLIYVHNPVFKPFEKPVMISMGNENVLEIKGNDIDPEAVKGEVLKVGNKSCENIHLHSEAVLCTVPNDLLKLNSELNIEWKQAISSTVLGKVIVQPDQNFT

B1: g3 (ssRNA)
RNA: GGGACGCUCACGUACGCUAAGGGCGAAACUGUCGUGACACGGUUUGACAUGCCGGCCUUAUCAGUGCCUGGACGUGCAGU
As for B1, the binding result in data set [1] was “binds”; in [2], “no binding”.
GGGACUGAGAGUUUGACCAGCUAUUAAAUGGGUCGUGACUCAGU (ssRNA) [g1-miniA]: the dissociation constant Kd in data set [3] stood at 7.98 nM.

B2: g1-u10del (ssRNA)
RNA: GGGACGCUAAACACACUGAGAGUUUGACCAGCUAUUAAAUGGGUCGUGACUCAGUGCCUGGACGUGC
As for B2, the binding result in [4] is given as “binds”.

B3: g4 (ssRNA)
RNA: GGGACGCUCACGUACGCUAAUACCGUGAUUCGGGGUGGUAUCCGGUGGACAUCCAGGUCGUCAGUGCCUGGACGUGCAGU
On to B3, for which the binding result in [1] is “binds”; in data set [2], “no binding”.

B4: g25 2'-F (ssRNA)
RNA: GGGACGCUCACGUACGCUAAUAGCAACAGUUCCCAGAGGUGAUCAGGCAGCCUUAAGACAUCAGUGCCUGGACGUGCAGU
modifications: 2'-F on all C and U
Regarding B4, the binding result in data set [5] is recorded as “binds”.

B5: g1-u20del (ssRNA)
RNA: GGGCACUGAGAGUUUGACCAGCUAUUAAAUGGGUCGUGACUCAGUGCCUGGACGUG
For B5, the binding result in [4] is listed as “binds”.

B6: g1-d5del (ssRNA)
RNA: GGGACGCUCACGUACGCUAAACACACUGAGAGUUUGACCAGCUAUUAAAUGGGUCGUGACUCAGUGCCUGGACGU
Regarding B6, in [4], the binding result is listed as “binds”.

B7: g29 2'-F (ssRNA)
RNA: GGGACGCUCACGUACGCUAAACGAGCCGUGAUUGGGUUGGCAACCCUGCUUAUGUGAGGAUCAGUGCCUGGACGUGCAGU
modifications: 2'-F on all C and U
As for B7, the binding result in [5] is on record as “binds”.

B8: g1 (ssRNA)
RNA: GGGACGCUCACGUACGCUAAACACACUGAGAGUUUGACCAGCUAUUAAAUGGGUCGUGACUCAGUGCCUGGACGUGCAGU
For the molecule B8, the results for the binding result in [2] and in data set [6] were “no binding” and “binds”, respectively.
With GGGCACUGAGAGUUUGACCAGCUAUUAAAUGGGUCGUGACUCAGUG (ssRNA) [g1-trA], the dissociation constant (Kd) in [7] is 8.18 nM.

B9: g9 (ssRNA)
RNA: GGGACGCUCACGUACGCUAAGAUGUCUCAAUUGGUCGUGAUUGUGCUGACCACACGAACCUCAGUGCCUGGACGUGCAGU
Regarding B9, the values for the binding result in data set [8] and in [2] were “binds” and “no binding”, respectively.
As for GGGUGAGAGUUUGACCAGCUAUUAAAUGGGUCGUGACUCA (ssRNA) [g1-miniC], the binding result in [3] is recorded as “binds”.

B10: g8 (ssRNA)
RNA: GGGACGCUCACGUACGCUAAGGGCACUUAAAACCAGACCGUGAUUUGCGGUUGGUCUCGCUCAGUGCCUGGACGUGCAGU
For B10, the binding result in [9] is “binds”; in [2] it was “no binding”.

B11: g1-d10del (ssRNA)
RNA: GGGACGCUCACGUACGCUAAACACACUGAGAGUUUGACCAGCUAUUAAAUGGGUCGUGACUCAGUGCCUG
For the molecule B11, the binding result in data set [4] was “binds”.

B12: g1-u5del (ssRNA)
RNA: GGGCACGUACGCUAAACACACUGAGAGUUUGACCAGCUAUUAAAUGGGUCGUGACUCAGUGCCUGGACGUGCAG
For B12, in data set [4], the binding result was “binds”.

B13: g2 (ssRNA)
RNA: GGGACGCUCACGUACGCUAAACCCUGGCGAUCUCCGGCCGGAUACGGGAGAACGAGGUACUCAGUGCCUGGACGUGCAGU
Consider B13, for which the binding result is “binds” in data set [1] and “no binding” in data set [2].

B14: g38 (ssRNA)
RNA: GGGACGCUCACGUACGCUAACCAGGAGCAUUAGACCGGGGAAAGAAGGAGUACCGUCUGGUCAGUGCCUGGACGUGCAGU
On to B14, for which the binding result in data set [10] is recorded as “binds”.

B15: g7 (ssRNA)
RNA: GGGACGCUCACGUACGCUAACUUGAAGUCAAGGGUAGAGUGACCAUGCAGCUCGUAGACAUCAGUGCCUGGACGUGCAGU
B15: the binding result was “binds” in [11] and “no binding” in data set [2].
For the molecule GGGCUGAGAGUUUGACCAGCUAUUAAAUGGGUCGUGACUCAG (ssRNA) [g1-miniB], in [3], the dissociation constant (Kd) turned out to be 26.4 nM.

By Kd is commonly meant the equilibrium constant for the complex coming apart.
